Assays:
[1] = system: PKCδ; assay: Immunohistochemistry for PKCδ in corneal wounds in vivo; set-up: species or system mouse; settings: rCAP37 250 ng/ml; sections at 6 hours
Description: Mice corneas were wounded using the AlgerBrush II and treated at 0 and 16 hours with vehicle (normal saline; (A-C)) or rCAP37 (250 ng/ml; (D-F)). Whole eye globes were enucleated at 6 hours (A, B, D, E), 16 hours (C, F), and 48 hours (H) post-wounding, and sections were stained for PKCδ. Representative images show constitutive staining for PKCδ in unwounded corneas (G). […] Pronounced staining for PKCδ was seen along the leading wound edge (↓) in CAP37-treated corneas at 6 hours (D, E) and 16 hours (F). […] Scale bars, 100 μm.
Immunohistochemistry: Whole mouse eyes were collected, fixed, embedded, and cut as previously described. Antigen retrieval was performed by treating sections with Rodent Decloaker (BioCare Medical, Concord, Calif.) and steaming them for 20 minutes before cooling with deionized water for 20 minutes. Sections were blocked for 30 minutes in Rodent Blocker M (BioCare Medical, Concord, Calif.), washed three times for 5 minutes per wash in deionized water, and blocked in peroxide block (Cell Marque, Rocklin, Calif.) for 10 minutes. Sections were then washed three times for 5 minutes in deionized water and incubated overnight at 4° C. with rabbit anti-PKCδ (4 μg/ml; Santa Cruz Biotechnology, Inc. Santa Cruz, Calif.). Sections incubated with rabbit IgG (Cell Signaling Technology, Danvers, Mass.) overnight at 4° C. served as controls for nonspecific staining. […]

[2] = system: mouse cornea; assay: Histology (H&E) of corneal wound closure and re-epithelialization; format: in vivo; settings: rCAP37 250 ng/ml
Description: FIG. 23 is a histological analysis of corneal wound closure and re-epithelialization in response to CAP37. Corneas of mice were wounded using the Algerbrush II and treated at 0 and 16 hours with rCAP37 (250 ng/ml) or vehicle (normal saline). Whole eye globes were enucleated at 0, 24, and 48 hours post wounding, and sections were stained using hematoxylin and eosin (H&E). Representative images are shown of (A) CAP37-treated wound at 24 hours, (B) vehicle-treated wound at 24 hours, (C) CAP37-treated wound at 48 hours, and (D) vehicle treated wound at 48 hours. The extent of closure and re-epithelialization of wounds was compared with (E) normal unwounded cornea.
Histology: Whole mouse eyes were collected for histology at 0, 6, 16, 24, and 48 hours post wounding and were immediately placed in Prefer fixative (Anatech LTD., Battle Creek, Mich.) for 20 minutes before being transferred to 70% ethanol. Tissues were paraffin-embedded and cut at a thickness of 5 μm, mounted on SUPERFROSTPLUS® slides (Statlab Medical Products, Lewisville, Tex.), and subsequently deparaffinized, rehydrated, and washed in deionized water. Sections were stained with hematoxylin (Leica Microsystems, Buffalo Grove, Ill.) and rinsed twice in deionized water before being washed in Blue Buffer (Leica Microsystems). […]

[3] = system: PKCδ; assay: Immunofluorescence for PKCδ in HCEC monolayers; format: cell-based, human; settings: CAP37 250 and 500 ng/ml; 15 minutes; scratched and non-scratched monolayers
Description: HCEC monolayers were grown to confluency and were scratched with a 10 μl pipette tip or left unscratched, and then the monolayers were treated for 15 minutes with (A-B) buffer, (C-D) PMA (1 μM), (E-F) 250 ng/ml CAP37, and (G-J) 500 ng/ml CAP37. Cells were stained for PKCδ (250 ng/ml; (A-H)), and PKCα (1 μg/ml; (I-J)) and detected using immunofluorescence (4 μg/ml, ALEXA FLUOR® 488 dye (Life Technologies Corp., Grand Island, N.Y.)). […] Scratched monolayers that were treated for 18 hours with CAP37 (250 ng/ml; (L)) or left untreated (K) were stained for PKCδ. […] Scale bars, 20 μm.
Immunofluorescence: HCECs and primary HCECs were cultured on Lab-Tek® II glass chamber slides (Nunc, Rochester, N.Y.) and starved overnight in basal media. For wounding studies, monolayers were scratched with a 10 μl pipette tip or left unscratched and treated with 1 μM phorbol 12-myristate 13-acetate (PMA, Sigma-Aldrich), rCAP37 (25-500 ng/ml), or basal KSFM (Gibco) for 15 minutes. After treatment, the cells were fixed in 4% (v/v) formaldehyde solution (Thermo, Rockford, Ill.) in PBS (Gibco) for 20 minutes at room temperature followed by permeabilization in 0.5% TRITON™-X 100 (Mallinckrodt, St. Louis, Mo.) in PBS for 10 minutes. Remaining formaldehyde was quenched with 0.05 M ammonium chloride (NH4Cl, Sigma-Aldrich, St. Louis, Mo.) in PBS for 10 minutes. […]

B1: CAP37: cationic antimicrobial protein of Mr 37 kDa; recombinant CAP37 produced in human embryonic kidney (HEK) 293 cells (protein)
chain: IVGGRKARPRQFPFLASIQNQGRHFCGGALIHARFVMTAASCFQSQNPGVSTVVLGAYDLRRRERQSRQTFSISSMSENGYDPQQNLNDLMLLQLDREANLTSSVTILPLPLQNATVEAGTRCQVAGWGSQRSGGRLSRFPRFVNVTVTPEDQCRPNNVCTGVLTRRGGICNGDGGTPLVCEGLAHGVASFSLGPCGRGPDFFTRVALFRDWIDGVLNNPGP
B1 was tested, and the “PKCδ staining of corneal sections, in words” value [1] was “strong staining for PKCδ”, the “re-epithelialization vs vehicle, in words” value ([2]; 24 hours) was “greatly accelerated in comparison to the vehicle-treated wounds” and the “structural integrity of the epithelium, in words” value ([2]; 48 hours) was “regained full integrity”. For the same molecule, the “PKCδ staining, in words” value [3] was “dose-dependent increase in PKCδ staining”.

Reference: patent publication US11884710B2, “Peptide compounds and methods of use in wound healing” (priority 2013, dated 2024)
